Patent US6908741 (TRANSTECH PHARMA, dated 2005)

Legend:
[1] = target: T1, soluble RAGE (sRAGE), the soluble, extracellular portion of the human Receptor for Advanced Glycated … (human, UniProt Q15109 23-339); test: ELISA saturation curve with Scatchard analysis (FIG. 8), 50 ng/well S-100b coated, sRAGE about 0.3-10 nM; high affinity component
[2] = target: T1, soluble RAGE (sRAGE), the soluble, …; test: ELISA saturation curves with Scatchard analysis (FIGS. 10 and 11), 500 and 100 ng/well S-100b coated, sRAGE about 23-470 nM or 5-76 nM; low affinity site, told for both experiments
[3] = target: T1, soluble RAGE (sRAGE), the soluble, …; test: ELISA saturation curve with Scatchard analysis (FIG. 9), 100 ng/well S-100b coated, sRAGE about 0.3-10 nM; high affinity component

T1 sequence (Q15109 23-339 limits assumed): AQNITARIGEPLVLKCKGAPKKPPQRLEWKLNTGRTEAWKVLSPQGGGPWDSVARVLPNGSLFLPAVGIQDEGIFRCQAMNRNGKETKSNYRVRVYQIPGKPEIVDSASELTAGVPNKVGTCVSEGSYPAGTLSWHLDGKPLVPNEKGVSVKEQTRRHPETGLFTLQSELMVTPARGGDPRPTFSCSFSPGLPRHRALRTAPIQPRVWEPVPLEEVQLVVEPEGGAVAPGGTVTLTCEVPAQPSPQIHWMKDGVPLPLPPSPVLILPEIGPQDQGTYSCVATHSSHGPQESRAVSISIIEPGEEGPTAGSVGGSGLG

Kd [1]: ~6 nM | Kd [2]: ~60 nM | Kd [3]: ~2 nM
B1: S-100b (ligand)
chain: MSELEKAMVALIDVFHQYSGREGDKHKLKKSELKELINNELSHFLEEIKEQEVVDKVMETLDNDGDGECDFQEFMAFVAMVTTACHEFFEHE
